These results are taken from patent US20200147199A1.

In general, Kd refers to the free concentration of one partner at which half of the binding sites on the other are occupied at equilibrium, for simple one-to-one binding. High values mean lower affinity, low ones higher affinity.

Some targets named below: Human FcγRIIIaV158; Human FcγRIIb; NHP FcγRIIa; Human FcRn; NHP FcγRIIb; Human FcγRIIaH131; NHP FcγRIII.
Common to all, as to test: SPR
On the technique in general: In SPR one partner is held on a chip, and binding of the other changes the refractive index at the surface.

For the substance LS, the Kd worked out at 0.233 µM with Human FcγRIIIaV158; 6.38 µM with Human FcγRIIb; 7.97 µM in the assay with NHP FcγRIIa; 0.00476 µM in the assay with Human FcRn; 2.69 µM with NHP FcγRIIb; 2.09 µM with Human FcγRIIaH131. Further, the Kd with NHP FcγRIII turned out to be 0.424 µM.

Regarding GRLR, in the assay with Human FcRn, the equilibrium dissociation constant (Kd) stood at 0.0224 µM.
